Columns and labels:
mouse IL-22 (mIL-22) = biological target: T1, mouse IL-22 (mIL-22) (Mus musculus, UniProt Q9JJY9); experiment: Inhibition of mIL-22 induced Stat3 phosphorylation in HepG2 cells; type: cell-based; conditions: mAb 6.7 nM
T1 sequence (Q9JJY9 34-179): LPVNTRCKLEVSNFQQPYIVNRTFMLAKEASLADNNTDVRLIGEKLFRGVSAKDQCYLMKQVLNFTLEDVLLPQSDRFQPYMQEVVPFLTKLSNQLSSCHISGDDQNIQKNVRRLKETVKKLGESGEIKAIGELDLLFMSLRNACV
Method: One of the immediate functions of IL-22 is inducing phosphorylation of Stat3, a protein in the signaling pathway of IL-22. The 10 antibodies of Table 1 were tested in a cell-based assay for blocking IL-22-dependent phosphorylation of Stat3 through human or mouse IL-22 in HepG2 cells. Antibody hum10 and mutant CPE-LC-E049K were used as controls. Four concentrations of each of the antibodies were used: 0.11 μg/mL, 0.33 μg/mL, 1 μg/mL, and 3 μg/mL.
30,000 human HepG2 cells were seeded in 96 well plates and serum starved overnight. Three-fold dilutions of anti-IL-22 antibodies and control hum10 antibody at concentrations of 0.11 μg/mL, 0.33 μg/mL, 1 μg/mL, and 3 μg/mL were incubated with 200 ng/ml of hIL-22 or mIL-22 at 37° C. for one hour then added to the serum starved human HepG2 cells. The HepG2 cells were incubated with the antibody-IL-22 mixture at 37° C. for 20 minutes. After incubation, HepG2 cells were washed with PBS and lysed. Half of the cell lysate was used to determine the level of phosphorylated Stat3 using Cell Signaling kit #7300 following the vendor's protocol and the other half of the cell lysate was used to determine the level of total Stat3 by Western blot analysis using a Santa Cruz rabbit polyclonal antibody (Sc-7179) against human Stat3.

mIL22 = biological target: T2, mIL22 (Mus musculus, UniProt Q9JJY9); experiment: Inhibition of mIL-22 induced acute phase response (SAA) in mice; type: in vivo; conditions: 5 μg mIL22 and 50 μg mAb; molar ratio of mIL 22:mAb = 1:2.2; SAA in mice at 24 hours
T2 sequence (Q9JJY9 34-179): T1 sequence (Q9JJY9 34-179)
Method: IL-22 induces acute phase responses in animals such as mice and humans. The mutant antibodies of the present invention can inhibit the acute phase response induced by IL-22. This acute phase response is indicated by the concentration of serum amyloid (SAA) in the blood of the animal as shown in FIG. 11. The SAA concentrations in the blood of mice were measured 24 hours after treatment of the mice by IL-22 and/or the mutant antibodies. When only IL-22 is used, the SAA concentration was high.
5 μg mIL-22 was used to stimulate an acute phase response in mice. The acute phase response was measured by the concentration of serum amyloid (SAA) in the blood of the mice. The anti-IL-22 antibodies were administered at two different dosage levels to inhibit the IL-22 induced acute phase response: 5 μg and 50 μg. Five mice were used for each dose group. The SAA concentrations were measured at 24 hours after injection of IL-22 and/or antibodies and the results are shown in FIG. 11.

B1: CPS02: mutant anti-IL-22 antibody binding human and mouse IL-22; light chain LC-06, heavy chain HC-08 (antibody, V domains shown)
VH: QVQLVQSGAEVKKPGASVKVSCKASGYIFRSYWIHWIRQPPGKGLEWIGRIYPGTGRTYYNEKFKGRVTISADKSISTAYLQWSSLKASDTAMYYCARSYDSSVAYWGQGTLVTVSS
VL: AIQLTQSPSSLSASVGDRVTITCSASSSVSYMHWYLQKPGQSPQLLIYKTRKLASGVPSRFSGSGSGTDFTFTISSLEAEDAATYYCQQWSSNPYITFGQGTKVEIKR
With B1 as the molecule, how does the “STAT3 Phosphorylation; mIL22 % inhibition” value (mouse IL-22 (mIL-22)) read?
Its value is 76.18%.

And the “Acute Phase response (% signal reduction)” value (mIL22)?
Its value is “signal increase”.

— patent US11834472B2, “Anti-IL-22 antibodies, antibody fragments, their immunoconjugates and uses thereof” (BioAtla, Inc., priority 2018, dated 2023)
